{"source": "paper PMC2975657", "key": {"[1]": {"molecular_target": "protective antigen, proteolytically activated 63-kDa portion (PA63) (Bacillus anthracis)", "assay": "native MS"}, "[2]": {"molecular_target": "Lethal factor LFN (Bacillus anthracis) (UniProt P15917)", "conditions": "cited from earlier work"}, "[3]": {"molecular_target": "protective antigen, proteolytically activated 63-kDa portion (PA63) (Bacillus anthracis)", "assay": "negative-stain electron microscopy"}, "[4]": {"molecular_target": "PA7(LFN)3 complex (heptameric PA oligomer with three LFN) (Bacillus anthracis)"}, "[5]": {"molecular_target": "PA8(LFN)4 complex (octameric PA oligomer with four LFN) (Bacillus anthracis)"}, "[6]": {"molecular_target": "PA7(LFN)3 complex (heptameric PA oligomer with three LFN) (Bacillus anthracis)", "assay": "native MS"}, "[7]": {"molecular_target": "PA8(LFN)4 complex (octameric PA oligomer with four LFN) (Bacillus anthracis)", "assay": "native MS"}}, "note": "Values joined by “and” are separate entries in the source; they are usually repeats but may differ in a detail not shown here. Identical values can stand only once.", "data": [{"substance": "LF's PA binding domain (LFN, the first 263 residues of LF) (domain or fragment)", "values": [{"measurement": "stoichiometry N (LFN per PA2 intermediate)", "setting": "[1]", "result": 1}, {"measurement": "stoichiometry N (LFN per PA4 intermediate)", "setting": "[1]", "result": 2}, {"measurement": "stoichiometry N (LFN per PA7 oligomer)", "setting": "[1]", "result": 3}, {"measurement": "stoichiometry N (LFN per PA8 oligomer)", "setting": "[1]", "result": 4}]}, {"substance": "Protective antigen (from UniProt P13423)", "values": [{"measurement": "Kd", "setting": "[2]", "result": 1, "unit": "nM"}]}, {"substance": "protective antigen, proteolytically activated 63-kDa portion (PA63) (domain or fragment)", "values": [{"measurement": "stoichiometry N", "setting": "[1]", "result": "4 and 2"}, {"measurement": "stoichiometry N (PA63 per oligomer)", "setting": "[1]", "result": "8 and 7"}, {"measurement": "stoichiometry N (PA63 per oligomer)", "setting": "[3]", "result": "7 and 8"}]}, {"substance": "soluble monomeric ANTXR2 extracellular domain (msANTXR2), capillary morphogenesis protein 2 residues 40-217 (from UniProt P58335 40-217) (receptor)", "values": [{"measurement": "pH midpoint of the prechannel-to-channel transition, CD signal at 222 nm, 37°C", "setting": "[4]", "result": 5.8, "unit": "pH"}, {"measurement": "pH midpoint of the prechannel-to-channel transition, CD signal at 222 nm, 37°C", "setting": "[5]", "result": 5.8, "unit": "pH"}, {"measurement": "stoichiometry N (msANTXR2 per PA7(LFN)3 complex)", "setting": "[6]", "result": 7}, {"measurement": "stoichiometry N (msANTXR2 per PA8(LFN)4 complex)", "setting": "[7]", "result": 8}]}]}
